Data taken from the supplement of paper PMC5998384.

How the values were obtained:
HeLa Kyoto [1] = experiment: solubility in G1/S (NP-40 vs SDS abundance) (log2 ratio); higher = more soluble; details: cell cycle stage: G1/S
HeLa Kyoto [2] = experiment: solubility change mitosis vs G1/S (difference of NP-40 vs SDS log2 ratios) (log2 ratio difference); higher = more soluble in mitosis
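Wherever solubility change mitosis vs G1/S (difference of NP-40 vs SDS log2 ratios) is given: synchronized HeLa Kyoto cells (double thymidine block for G1/S, nocodazole release for mitosis), protein amounts in NP-40 versus SDS lysates quantified by mass spectrometry, three biological replicates.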
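Wherever solubility in G1/S (NP-40 vs SDS abundance) is given: HeLa Kyoto cells arrested at G1/S by double thymidine block, proteins quantified by TMT10plex mass spectrometry in mild NP-40 versus SDS extracts, three biological replicates.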

Sequence | solubility in G1/S (log2) (HeLa Kyoto [1]) | solubility change mitosis (log2) (HeLa Kyoto [2])
MFQASMRSPNMEPFKQQKVEDFYDIGEELGSGQFAIVKKCREKSTGLEYAAKFIKKRQSRASRRGVSREEIEREVSILRQVLHHNVITLHDVYENRTDVVLILELVSGGELFDFLAQKESLSEEEATSFIKQILDGVNYLHTKKIAHFDLKPENIMLLDKNIPIPHIKLIDFGLAHEIEDGVEFKNIFGTPEFVAPEIVNYEPLGLEADMWSIGVITYILLSGASPFLGDTKQETLANITAVSYDFDEEFFSQTSELAKDFIRKLLVKETRKRLTIQEALRHPWITPVDNQQAMVRRESVVNLENFRKQYVRRRWKLSFSIVSLCNHLTRSLMKKVHLRPDEDLRNCESDTEEDIARRKALHPRRRSSTS [DAPK2] | 0.203 | -0.115
MGAAAAEADRTLFVGNLETKVTEELLFELFHQAGPVIKVKIPKDKDGKPKQFAFVNFKHEVSVPYAMNLLNGIKLYGRPIKIQFRSGSSHAPQDVSLSYPQHHVGNSSPTSTSPSRYERTMDNMTSSAQIIQRSFSSPENFQRQAVMNSALRQMSYGGKFGSSPLDQSGFSPSVQSHSHSFNQSSSSQWRQGTPSSQRKVRMNSYPYLADRHYSREQRYTDHGSDHHYRGKRDDFFYEDRNHDDWSHDYDNRRDSSRDGKWRSSRH [RBM7] | 0.568 | 0.189
MGLEDEQKMLTESGDPEEEEEEEEELVDPLTTVREQCEQLEKCVKARERLELCDERVSSRSHTEEDCTEELFDFLHARDHCVAHKLFNNLK [UQCRH] | -0.528 | 0.641
MGLYGQACPSVTSLRMTSELESSLTSMDWLPQLTMRAAIQKSDATQNAHGTGISKKNALLDPNTTLDQEEVQQHKDGKPPYSYASLITFAINSSPKKKMTLSEIYQWICDNFPYYREAGSGWKNSIRHNLSLNKCFLKVPRSKDDPGKGSYWAIDTNPKEDVLPTRPKKRARSVERASTPYSIDSDSLGMECIISGSASPTLAINTVTNKVTLYNTDQDGSDSPRSSLNNSLSDQSLASVNLNSVGSVHSYTPVTSHPESVSQSLTPQQQPQYNLPERDKQLLFSEYNFEDLSASFRSLYKSVFEQSLSQQGLMNIPSESSQQSHTSCTYQHSPSSTVSTHPHSNQSSLSNSHGSGLNTTGSNSVAQVSLSHPQMHTQPSPHPPHRPHGLPQHPQRSPHPAPHPQQHSQLQSPHPQHPSPHQHIQHHPNHQHQTLTHQAPPPPQQVSCNSGVSNDWYATLDMLKESCRIASSVNWSDVDLSQFQGLMESMRQADLKNWSLDQVQFADLCSSLNQFFTQTGLIHSQSNVQQNVCHGAMHPTKPSQHIGTGNLYIDSRQNLPPSVMPPPGYPHIPQALSTPGTTMAGHHRAMNQQHMMPSQAFQMRRSLPPDDIQDDFDWDSIV [FOXJ3] | 0.664 | 0.0825
MGMACLTMTEMEGTSTSSIYQNGDISGNANSMKQIDPVLQVYLYHSLGKSEADYLTFPSGEYVAEEICIAASKACGITPVYHNMFALMSETERIWYPPNHVFHIDESTRHNVLYRIRFYFPRWYCSGSNRAYRHGISRGAEAPLLDDFVMSYLFAQWRHDFVHGWIKVPVTHETQEECLGMAVLDMMRIAKENDQTPLAIYNSISYKTFLPKCIRAKIQDYHILTRKRIRYRFRRFIQQFSQCKATARNLKLKYLINLETLQSAFYTEKFEVKEPGSGPSGEEIFATIIITGNGGIQWSRGKHKESETLTEQDLQLYCDFPNIIDVSIKQANQEGSNESRVVTIHKQDGKNLEIELSSLREALSFVSLIDGYYRLTADAHHYLCKEVAPPAVLENIQSNCHGPISMDFAISKLKKAGNQTGLYVLRCSPKDFNKYFLTFAVERENVIEYKHCLITKNENEEYNLSGTKKNFSSLKDLLNCYQMETVRSDNIIFQFTKCCPPKPKDKSNLLVFRTNGVSDVPTSPTLQRPTHMNQMVFHKIRNEDLIFNESLGQGTFTKIFKGVRREVGDYGQLHETEVLLKVLDKAHRNYSESFFEAASMMSKLSHKHLVLNYGVCVCGDENILVQEFVKFGSLDTYLKKNKNCINILWKLEVAKQLAWAMHFLEENTLIHGNVCAKNILLIREEDRKTGNPPFIKLSDPGISITVLPKDILQERIPWVPPECIENPKNLNLATDKWSFGTTLWEICSGGDKPLSALDSQRKLQFYEDRHQLPAPKWAELANLINNCMDYEPDFRPSFRAIIRDLNSLFTPDYELLTENDMLPNMRIGALGFSGAFEDRDPTQFEERHLKFLQQLGKGNFGSVEMCRYDPLQDNTGEVVAVKKLQHSTEEHLRDFEREIEILKSLQHDNIVKYKGVCYSAGRRNLKLIMEYLPYGSLRDYLQKHKERIDHIKLLQYTSQICKGMEYLGTKRYIHRDLATRNILVENENRVKIGDFGLTKVLPQDKEYYKVKEPGESPIFWYAPESLTESKFSVASDVWSFGVVLYELFTYIEKSKSPPAEFMRMIGNDKQGQMIVFHLIELLKNNGRLPRPDGCPDEIYMIMTECWNNNVNQRPSFRDLALRVDQIRDNMAG [JAK2] | -0.224 | 0.0233
MGNRGMEDLIPLVNRLQDAFSAIGQNADLDLPQIAVVGGQSAGKSSVLENFVGRDFLPRGSGIVTRRPLVLQLVNATTEYAEFLHCKGKKFTDFEEVRLEIEAETDRVTGTNKGISPVPINLRVYSPHVLNLTLVDLPGMTKVPVGDQPPDIEFQIRDMLMQFVTKENCLILAVSPANSDLANSDALKVAKEVDPQGQRTIGVITKLDLMDEGTDARDVLENKLLPLRRGYIGVVNRSQKDIDGKKDITAALAAERKFFLSHPSYRHLADRMGTPYLQKVLNQQLTNHIRDTLPGLRNKLQSQLLSIEKEVEEYKNFRPDDPARKTKALLQMVQQFAVDFEKRIEGSGDQIDTYELSGGARINRIFHERFPFELVKMEFDEKELRREISYAIKNIHGIRTGLFTPDMAFETIVKKQVKKIREPCLKCVDMVISELISTVRQCTKKLQQYPRLREEMERIVTTHIREREGRTKEQVMLLIDIELAYMNTNHEDFIGFANAQQRSNQMNKKKTSGNQDEILVIRKGWLTINNIGIMKGGSKEYWFVLTAENLSWYKDDEEKEKKYMLSVDNLKLRDVEKGFMSSKHIFALFNTEQRNVYKDYRQLELACETQEEVDSWKASFLRAGVYPERVGDKEKASETEENGSDSFMHSMDPQLERQVETIRNLVDSYMAIVNKTVRDLMPKTIMHLMINNTKEFIFSELLANLYSCGDQNTLMEESAEQAQRRDEMLRMYHALKEALSIIGDINTTTVSTPMPPPVDDSWLQVQSVPAGRRSPTSSPTPQRRAPAVPPARPGSRGPAPGPPPAGSALGGAPPVPSRPGASPDPFGPPPQVPSRPNRAPPGVPSRSGQASPSRPESPRPPFDL [DNM1] | 0.233 | -0.0969
MGPKRRQLTFREKSRIIQEVEENPDLRKGEIARRFNIPPSTLSTILKNKRAILASERKYGVASTCRKTNKLSPYDKLEGLLIAWFQQIRAAGLPVKGIILKEKALRIAEELGMDDFTASNGWLDRFRRRHGVVSCSGVARARARNAAPRTPAAPASPAAVPSEGSGGSTTGWRAREEQPPSVAEGYASQDVFSATETSLWYDFLPDQAAGLCGGDGRPRQATQRLSVLLCANADGSEKLPPLVAGKSAKPRAGQAGLPCDYTANSKGGVTTQALAKYLKALDTRMAAESRRVLLLAGRLAAQSLDTSGLRHVQLAFFPPGTVHPLERGVVQQVKGHYRQAMLLKAMAALEGQDPSGLQLGLTEALHFVAAAWQAVEPSDIAACFREAGFGGGPNATITTSLKSEGEEEEEEEEEEEEEEGEGEEEEEEGEEEEEEGGEGEELGEEEEVEEEGDVDSDEEEEEDEESSSEGLEAEDWAQGVVEAGGSFGAYGAQEEAQCPTLHFLEGGEDSDSDSEEEDDEEEDDEDEDDDDDEEDGDEVPVPSFGEAMAYFAMVKRYLTSFPIDDRVQSHILHLEHDLVHVTRKNHARQAGVRGLGHQS [CENPB] | -0.711 | -0.105
MGQCVTKCKNPSSTLGSKNGDREPSNKSHSRRGAGHREEQVPPCGKPGGDILVNGTKKAEAATEACQLPTSSGDAGRESKSNAEESSLQRLEELFRRYKDEREDAILEEGMERFCNDLCVDPTEFRVLLLAWKFQAATMCKFTRKEFFDGCKAISADSIDGICARFPSLLTEAKQEDKFKDLYRFTFQFGLDSEEGQRSLHREIAIALWKLVFTQNNPPVLDQWLNFLTENPSGIKGISRDTWNMFLNFTQVIGPDLSNYSEDEAWPSLFDTFVEWEMERRKREGEGRGALSSGPEGLCPEEQT [DCUN1D3] | 0.0421 | -0.131
MGSAFERVVRRVVQELDHGGEFIPVTSLQSSTGFQPYCLVVRKPSSSWFWKPRYKCVNLSIKDILEPDAAEPDVQRGRSFHFYDAMDGQIQGSVELAAPGQAKIAGGAAVSDSSSTSMNVYSLSVDPNTWQTLLHERHLRQPEHKVLQQLRSRGDNVYVVTEVLQTQKEVEVTRTHKREGSGRFSLPGATCLQGEGQGHLSQKKTVTIPSGSTLAFRVAQLVIDSDLDVLLFPDKKQRTFQPPATGHKRSTSEGAWPQLPSGLSMMRCLHNFLTDGVPAEGAFTEDFQGLRAEVETISKELELLDRELCQLLLEGLEGVLRDQLALRALEEALEQGQSLGPVEPLDGPAGAVLECLVLSSGMLVPELAIPVVYLLGALTMLSETQHKLLAEALESQTLLGPLELVGSLLEQSAPWQERSTMSLPPGLLGNSWGEGAPAWVLLDECGLELGEDTPHVCWEPQAQGRMCALYASLALLSGLSQEPH [GSDMD] | 0.121 | -0.218
MGVDFDVKTFCHNLRATKPPYECPVETCRKVYKSYSGIEYHLYHYDHDNPPPPQQTPLRKHKKKGRQSRPANKQSPSPSEVSQSPGREVMSYAQAQRMVEVDLHGRVHRISIFDNLDVVSEDEEAPEEAPENGSNKENTETPAATPKSGKHKNKEKRKDSNHHHHHNVSASTTPKLPEVVYRELEQDTPDAPPRPTSYYRYIEKSAEELDEEVEYDMDEEDYIWLDIMNERRKTEGVSPIPQEIFEYLMDRLEKESYFESHNKGDPNALVDEDAVCCICNDGECQNSNVILFCDMCNLAVHQECYGVPYIPEGQWLCRRCLQSPSRAVDCALCPNKGGAFKQTDDGRWAHVVCALWIPEVCFANTVFLEPIDSIEHIPPARWKLTCYICKQRGSGACIQCHKANCYTAFHVTCAQQAGLYMKMEPVRETGANGTSFSVRKTAYCDIHTPPGSARRLPALSHSEGEEDEDEEEDEGKGWSSEKVKKAKAKSRIKMKKARKILAEKRAAAPVVSVPCIPPHRLSKITNRLTIQRKSQFMQRLHSYWTLKRQSRNGVPLLRRLQTHLQSQRNCDQVGRDSEDKNWALKEQLKSWQRLRHDLERARLLVELIRKREKLKRETIKVQQIAMEMQLTPFLILLRKTLEQLQEKDTGNIFSEPVPLSEVPDYLDHIKKPMDFFTMKQNLEAYRYLNFDDFEEDFNLIVSNCLKYNAKDTIFYRAAVRLREQGGAVLRQARRQAEKMGIDFETGMHIPHSLAGDEATHHTEDAAEEERLVLLENQKHLPVEEQLKLLLERLDEVNASKQSVGRSRRAKMIKKEMTALRRKLAHQRETGRDGPERHGPSSRGSLTPHPAACDKDGQTDSAAEESSSQETSKGLGPNMSSTPAHEVGRRTSVLFSKKNPKTAGPPKRPGRPPKNRESQMTPSHGGSPVGPPQLPIMSSLRQRKRGRSPRPSSSSDSDSDKSTEDPPMDLPANGFSGGNQPVKKSFLVYRNDCSLPRSSSDSESSSSSSSSAASDRTSTTPSKQGRGKPSFSRGTFPEDSSEDTSGTENEAYSVGTGRGVGHSMVRKSLGRGAGWLSEDEDSPLDALDLVWAKCRGYPSYPALIIDPKMPREGMFHHGVPIPVPPLEVLKLGEQMTQEAREHLYLVLFFDNKRTWQWLPRTKLVPLGVNQDLDKEKMLEGRKSNIRKSVQIAYHRALQHRSKVQGEQSSETSDSD [BRPF1] | -1.3 | 0.44
